Laboratory results published in US20210228731A1, “ANTIBODY DRUG CONJUGATES FOR ABLATING HEMATOPOIETIC STEM CELLS” (NOVARTIS AG, priority 2018, published 2021).

Tested on: human peripheral blood HSC-derived mast cells
Assay: In vitro human mast cell degranulation assay (beta-hexosaminidase release)
Format: cell-based
Conditions: test agents 0.006-25 nM cross-linked with antibody specific for the Fab portion; absence of SCF
Procedure: Mature mast cells were generated using CD34+ progenitors from mobilized peripheral blood. CD34+ cells were cultured in StemSpan SFEM (StemCell Technologies) supplemented with recombinant human stem cell factor (rhSCF, 50 ng/ml, Gibco), recombinant human interleukin 6 (rhIL-6, 50 ng/ml, Gibco), recombinant human IL-3 (30 ng/ml, Peprotech), GlutaMAX ([…], Gibco), penicillin (100 U/ml, Hyclone) and streptomycin (100 μg/ml, Hyclone). Recombinant hll-3 was added only during the first week of the culture. After the third week, half of the medium was replaced weekly with fresh medium containing rhIL-6 (50 ng/ml) and rhSCF (50 ng/ml). Mature mast cell purity was evaluated by surface staining of high-affinity IgE receptor (FCεRI, eBioscience) and CD117 (BD). […]
The derived mast cells were washed once to remove SCF, and the required amount of cells was incubated overnight in mast cell medium containing rhIL-6 (50 ng/ml) with or without rhSCF (50 ng/ml). […] During this incubation, p-nitro-N-acetyl-pi-D-gluosamine (pNAG, Sigma) buffer was prepared by sonicating 3.5 mg/ml of pNAG in citrate buffer (40 mM citric acid, 20 mM sodium phosphate dibasic, pH 4.5). β-hexosaminidase release was measured by mixing 20 μl of cell supernatant with 40 μl of pNAG solution in a flat-bottom 384-well plate. […] Absorbance was read using a plate reader at λ=405 nm with reference filter at λ=620 nm. […]

B1: anti-cKIT Fab4 (HC-E152C): anti-cKIT Fab fragment with heavy chain E152C (Cys Fab HC SEQ ID NO: 136) (antibody)
heavy: QVQLQQSGPGLVKPSQTLSLTCAISGDSVSTNSAAWNWIRQSPSRGLEWLGRIYYRSQWLNDYAVSVKSRITINPDTSKNQFSLQLNSVTPEDTAVYYCARQLTYPYTVYHKALDVWGQGTLVTVSSASTKGPSVFPLAPSSKSTSGGTAALGCLVKDYFPCPVTVSWNSGALTSGVHTFPAVLQSSGLYSLSSVVTVPSSSLGTQTYICNVNHKPSNTKVDKRVEPKSCD
modifications: light chain not cited
- mast cell degranulation (beta-hexosaminidase release) when cross-linked: no mast cell degranulation was triggered
